The results in this text go back to article PMC11137118 (2024).

For assay [1], the target named is all variants (mouse) of IL-22-ScFv. The assay can be described thus: SPR. Background: In SPR one partner is held on a chip, and binding of the other changes the refractive index at the surface.
The target of assay [2] is hIL-22-ScFv (human IL-22 fused to a pancreas/liver targeting single chain variable fragment, linker (G4S)1) (human, UniProt Q9GZX6). The assay can be described thus: SPR.

B1: IL-22RA1 receptor (receptor)
chain: HAPEDPSDLLQHVKFQSSNFENILTWDSGPEGTPDTVYSIEYKTYGERDWVAKKGCQRITRKSCNLTVETGNLTELYYARVTAVSAGGRSATKMTDRFSSLQHTTLKPPDVTCISKVRSIQMIVHPTPTPIRAGDGHRLTLEDIFHDLFYHLELQVNRTYQMHLGGKQREYEFFGLTPDTEFLGTIMICVPTWAKESAPYMCRVKTLPDRTWTYSFSGAFLFSMGFLVAVLCYLSYRYVTKPPAPPNSLNVQRVLTFQPLRFIQEHVLIPVFDLSGPSSLAQPVQYSQIRVSGPREPAGAPQRHSLSEITYLGQPDISILQPSNVPPPQILSPLSYAPNAAPEVGPPSYAPQVTPEAQFPFYAPQAISKVQPSSYAPQATPDSWPPSYGVCMEGSGKDSPTGTLSSPKHLRPKGQLQKEPPAGSCMLGGLSLQEVTSLAMEESQEAKSLHQPLGICTDRTSDPNVLHSGEEGTPQYLKGQLPLLSSVQIEGHPMSLPLQPPSRPCSPSDQGPSPWGLLESLVCPKDEAKSPAPETSDLEQPTELDSLFRGLALTVQWES
Turning to B1, in assay [1], binding was put at a Kd of 2.82 nM and the koff was 0.000872 s⁻¹. In assay [2], this molecule had a Kd of 3.45 nM and a koff of 0.000781 s⁻¹.

By Kd is commonly meant the constant that tells how readily two partners part at equilibrium. For orientation: koff means a measure of how fast the partners let go of each other. Low readings indicate slow dissociation, high ones fast dissociation.
